B1: glmS ribozyme (parent)
chain: AUAAAAGCGCCAGAACUACAGAAAUGUAGUUGACGAGGAGGAGGUUUAUCGAAUUUUCGGCGGAUGCCUCCAAA

± gives the standard error. Fewer inactive variants are shown than the library holds.

Common to all, as to settings: with glucosamine-6-phosphate
In data set [1] the parent is B1. Briefly: self-cleavage kobs at 40 uM GlcN6P; higher = faster cleavage; RNA array. The method, boiled down:
(§1)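 On sequenced MiSeq chips, barcoded ribozyme variants were made in situ by E. coli RNA polymerase and followed at 37 °C through a hybridised Cy3 probe. Glucosamine-6-phosphate was flowed in at 40 μM to 10 mM in HEPES/KCl/Mg(OAc)2 buffer. Exponential fits to normalised per-tile medians gave kobs, and weighted Michaelis–Menten fits gave kcat and KM.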

Variants of B1 are the subject of data set [2]. Briefly: self-cleavage kobs at 10000 uM GlcN6P; higher = faster cleavage; RNA array. In short, it runs like this: as §1
The variants in data set [3] derive from B1. Briefly: self-cleavage kobs at 160 uM GlcN6P; higher = faster cleavage; RNA array. The method, boiled down: as §1
The variants in data set [4] derive from B1. The data set is described as follows: self-cleavage kobs at 640 uM GlcN6P; higher = faster cleavage; RNA array. In short, it runs like this:
as §1

Data set [5] covers variants of B1. Briefly: self-cleavage kobs at 2500 uM GlcN6P; higher = faster cleavage; RNA array. In short, it runs like this:
as §1

Data on 25 variants can be found in the supplement of paper PMC7125110.

As for A14G A15C G41U C58U, in the data set with glucosamine-6-phosphate [1], the “self-cleavage kobs at 40 uM GlcN6P” value is less than 1e-05 s⁻¹. Further, the “self-cleavage kobs at 10000 uM GlcN6P” value with glucosamine-6-phosphate [2] was less than 1e-05 s⁻¹.
Take A6U C11U G32U: in the data set with glucosamine-6-phosphate [1], the “self-cleavage kobs at 40 uM GlcN6P” value is less than 1e-05 s⁻¹. In addition, the “self-cleavage kobs at 10000 uM GlcN6P” value with glucosamine-6-phosphate [2] is less than 1e-05 s⁻¹.
Take C11G G13A: in the data set with glucosamine-6-phosphate [1], the “self-cleavage kobs at 40 uM GlcN6P” value was less than 1e-05 s⁻¹. The “self-cleavage kobs at 160 uM GlcN6P” value with glucosamine-6-phosphate [3] is less than 1e-05 s⁻¹. Also, the “self-cleavage kobs at 10000 uM GlcN6P” value with glucosamine-6-phosphate [2] was less than 1e-05 s⁻¹.
As for A15G U45A, the “self-cleavage kobs at 40 uM GlcN6P” value with glucosamine-6-phosphate [1] is 0.00128 ± 0.00026 s⁻¹. In addition, in the data set with glucosamine-6-phosphate [3], the “self-cleavage kobs at 160 uM GlcN6P” value amounted to 0.00318 ± 0.0012 s⁻¹. Also, in the data set with glucosamine-6-phosphate [4], the “self-cleavage kobs at 640 uM GlcN6P” value is 0.025 ± 0.0066 s⁻¹. Moreover, the “self-cleavage kobs at 2500 uM GlcN6P” value in the data set with glucosamine-6-phosphate [5] was determined as 0.046 ± 0.019 s⁻¹. Also, the “self-cleavage kobs at 10000 uM GlcN6P” value with glucosamine-6-phosphate [2] worked out at 0.098 ± 0.043 s⁻¹.
Consider G9U U56G C71A, for which the “self-cleavage kobs at 40 uM GlcN6P” value with glucosamine-6-phosphate [1] was less than 1e-05 s⁻¹.
A28U: the “self-cleavage kobs at 40 uM GlcN6P” value in the data set with glucosamine-6-phosphate [1] is 0.000787 ± 0.00025 s⁻¹. In the data set with glucosamine-6-phosphate [5], the “self-cleavage kobs at 2500 uM GlcN6P” value came to 0.0144 ± 0.0048 s⁻¹. Further, the “self-cleavage kobs at 10000 uM GlcN6P” value with glucosamine-6-phosphate [2] was 0.0176 ± 0.0065 s⁻¹.
On to G40U U56C G59C, for which the “self-cleavage kobs at 40 uM GlcN6P” value in the data set with glucosamine-6-phosphate [1] is less than 1e-05 s⁻¹. Moreover, the “self-cleavage kobs at 10000 uM GlcN6P” value with glucosamine-6-phosphate [2] was less than 1e-05 s⁻¹.
Consider G37C A48U, for which the “self-cleavage kobs at 40 uM GlcN6P” value in the data set with glucosamine-6-phosphate [1] was less than 1e-05 s⁻¹. Moreover, in the data set with glucosamine-6-phosphate [2], the “self-cleavage kobs at 10000 uM GlcN6P” value is less than 1e-05 s⁻¹.
In the case of G32A G43U C67U, the “self-cleavage kobs at 40 uM GlcN6P” value in the data set with glucosamine-6-phosphate [1] is less than 1e-05 s⁻¹. For the same variant, the “self-cleavage kobs at 2500 uM GlcN6P” value with glucosamine-6-phosphate [5] was less than 1e-05 s⁻¹.
For C8U U65G, the “self-cleavage kobs at 40 uM GlcN6P” value in the data set with glucosamine-6-phosphate [1] was less than 1e-05 s⁻¹. Further, the “self-cleavage kobs at 160 uM GlcN6P” value with glucosamine-6-phosphate [3] was less than 1e-05 s⁻¹. Further, in the data set with glucosamine-6-phosphate [4], the “self-cleavage kobs at 640 uM GlcN6P” value was less than 1e-05 s⁻¹. Also, in the data set with glucosamine-6-phosphate [5], the “self-cleavage kobs at 2500 uM GlcN6P” value is less than 1e-05 s⁻¹. The “self-cleavage kobs at 10000 uM GlcN6P” value in the data set with glucosamine-6-phosphate [2] was less than 1e-05 s⁻¹.
Turning to G13A A53U, the “self-cleavage kobs at 40 uM GlcN6P” value in the data set with glucosamine-6-phosphate [1] is less than 1e-05 s⁻¹. Further, the “self-cleavage kobs at 640 uM GlcN6P” value with glucosamine-6-phosphate [4] amounted to 7.57e-05 ± 2.4e-05 s⁻¹. For the same variant, the “self-cleavage kobs at 2500 uM GlcN6P” value in the data set with glucosamine-6-phosphate [5] came out at 0.000174 ± 4.1e-05 s⁻¹.
Regarding A6G A15U G59A, in the data set with glucosamine-6-phosphate [1], the “self-cleavage kobs at 40 uM GlcN6P” value was less than 1e-05 s⁻¹. The “self-cleavage kobs at 2500 uM GlcN6P” value in the data set with glucosamine-6-phosphate [5] is less than 1e-05 s⁻¹. The “self-cleavage kobs at 10000 uM GlcN6P” value in the data set with glucosamine-6-phosphate [2] is less than 1e-05 s⁻¹.
For the variant C8U A39U, the “self-cleavage kobs at 40 uM GlcN6P” value with glucosamine-6-phosphate [1] was less than 1e-05 s⁻¹. Further, the “self-cleavage kobs at 160 uM GlcN6P” value with glucosamine-6-phosphate [3] is less than 1e-05 s⁻¹. For the same variant, the “self-cleavage kobs at 2500 uM GlcN6P” value with glucosamine-6-phosphate [5] is less than 1e-05 s⁻¹.
Regarding G13A A42G A48U, the “self-cleavage kobs at 40 uM GlcN6P” value with glucosamine-6-phosphate [1] is less than 1e-05 s⁻¹. In the data set with glucosamine-6-phosphate [2], the “self-cleavage kobs at 10000 uM GlcN6P” value was less than 1e-05 s⁻¹.
Take G37A A52U G59A G60A: the “self-cleavage kobs at 40 uM GlcN6P” value in the data set with glucosamine-6-phosphate [1] is less than 1e-05 s⁻¹.
As for G13A G41C, the “self-cleavage kobs at 40 uM GlcN6P” value with glucosamine-6-phosphate [1] is less than 1e-05 s⁻¹. Also, the “self-cleavage kobs at 640 uM GlcN6P” value in the data set with glucosamine-6-phosphate [4] is less than 1e-05 s⁻¹.
For the variant G38C U65C, the “self-cleavage kobs at 40 uM GlcN6P” value in the data set with glucosamine-6-phosphate [1] was less than 1e-05 s⁻¹. Further, the “self-cleavage kobs at 160 uM GlcN6P” value with glucosamine-6-phosphate [3] is less than 1e-05 s⁻¹. Further, in the data set with glucosamine-6-phosphate [4], the “self-cleavage kobs at 640 uM GlcN6P” value was less than 1e-05 s⁻¹. Moreover, the “self-cleavage kobs at 10000 uM GlcN6P” value with glucosamine-6-phosphate [2] is less than 1e-05 s⁻¹.
With G9A A14C A48C, the “self-cleavage kobs at 40 uM GlcN6P” value in the data set with glucosamine-6-phosphate [1] is less than 1e-05 s⁻¹.
Consider U45A U55A A64G, for which the “self-cleavage kobs at 40 uM GlcN6P” value with glucosamine-6-phosphate [1] was determined as 0.00112 ± 0.00022 s⁻¹. In the data set with glucosamine-6-phosphate [4], the “self-cleavage kobs at 640 uM GlcN6P” value is 0.00335 ± 0.0011 s⁻¹. In addition, the “self-cleavage kobs at 2500 uM GlcN6P” value with glucosamine-6-phosphate [5] was found to be 0.00972 ± 0.0028 s⁻¹. Besides, in the data set with glucosamine-6-phosphate [2], the “self-cleavage kobs at 10000 uM GlcN6P” value was determined as 0.0175 ± 0.0056 s⁻¹.
Taken in the same sequence, the figures for A14G U54C U69C were 0.000416 ± 9.9e-05 s⁻¹, 0.0011 ± 0.00044 s⁻¹, 0.000161 ± 5.8e-05 s⁻¹ and 0.0047 ± 0.0013 s⁻¹.
Take C8A C11G A12G C68U: the “self-cleavage kobs at 40 uM GlcN6P” value with glucosamine-6-phosphate [1] is less than 1e-05 s⁻¹.
With U47C G60U, in the data set with glucosamine-6-phosphate [1], the “self-cleavage kobs at 40 uM GlcN6P” value was less than 1e-05 s⁻¹. In the data set with glucosamine-6-phosphate [3], the “self-cleavage kobs at 160 uM GlcN6P” value is less than 1e-05 s⁻¹. In the data set with glucosamine-6-phosphate [4], the “self-cleavage kobs at 640 uM GlcN6P” value is less than 1e-05 s⁻¹. For the same variant, the “self-cleavage kobs at 2500 uM GlcN6P” value in the data set with glucosamine-6-phosphate [5] was less than 1e-05 s⁻¹.
In the case of C68U C70A C71U, the “self-cleavage kobs at 40 uM GlcN6P” value with glucosamine-6-phosphate [1] is less than 1e-05 s⁻¹. The “self-cleavage kobs at 2500 uM GlcN6P” value with glucosamine-6-phosphate [5] was less than 1e-05 s⁻¹. For the same variant, the “self-cleavage kobs at 10000 uM GlcN6P” value with glucosamine-6-phosphate [2] was less than 1e-05 s⁻¹.
In the case of A12C A33G U65C, in the data set with glucosamine-6-phosphate [1], the “self-cleavage kobs at 40 uM GlcN6P” value is less than 1e-05 s⁻¹.
Take C10G A14G C16A G41C: the “self-cleavage kobs at 40 uM GlcN6P” value with glucosamine-6-phosphate [1] was less than 1e-05 s⁻¹. Also, in the data set with glucosamine-6-phosphate [2], the “self-cleavage kobs at 10000 uM GlcN6P” value is less than 1e-05 s⁻¹.
